# Measured values published in patent US10189887B2, “Polypeptides and uses thereof for reducing CD95-mediated cell motility” (INSERM (INSTITUT NATIONAL DE LA SANTÉ ET DE LA RECHERCHE …, priority 2014, dated 2019).
# What was measured:
# CD95/PLCγ1 = biological target: T1, CD95/PLCγ1 (Homo sapiens, UniProt P19174); assay: PLCγ1 recruitment to CD95 (immunoprecipitation and immunoblotting); format: cell-based
# T1 construct: endogenous in cells; host or cells: CEM (human leukemic T-cell line)
# T1 sequence (P19174 2-1290 limits assumed): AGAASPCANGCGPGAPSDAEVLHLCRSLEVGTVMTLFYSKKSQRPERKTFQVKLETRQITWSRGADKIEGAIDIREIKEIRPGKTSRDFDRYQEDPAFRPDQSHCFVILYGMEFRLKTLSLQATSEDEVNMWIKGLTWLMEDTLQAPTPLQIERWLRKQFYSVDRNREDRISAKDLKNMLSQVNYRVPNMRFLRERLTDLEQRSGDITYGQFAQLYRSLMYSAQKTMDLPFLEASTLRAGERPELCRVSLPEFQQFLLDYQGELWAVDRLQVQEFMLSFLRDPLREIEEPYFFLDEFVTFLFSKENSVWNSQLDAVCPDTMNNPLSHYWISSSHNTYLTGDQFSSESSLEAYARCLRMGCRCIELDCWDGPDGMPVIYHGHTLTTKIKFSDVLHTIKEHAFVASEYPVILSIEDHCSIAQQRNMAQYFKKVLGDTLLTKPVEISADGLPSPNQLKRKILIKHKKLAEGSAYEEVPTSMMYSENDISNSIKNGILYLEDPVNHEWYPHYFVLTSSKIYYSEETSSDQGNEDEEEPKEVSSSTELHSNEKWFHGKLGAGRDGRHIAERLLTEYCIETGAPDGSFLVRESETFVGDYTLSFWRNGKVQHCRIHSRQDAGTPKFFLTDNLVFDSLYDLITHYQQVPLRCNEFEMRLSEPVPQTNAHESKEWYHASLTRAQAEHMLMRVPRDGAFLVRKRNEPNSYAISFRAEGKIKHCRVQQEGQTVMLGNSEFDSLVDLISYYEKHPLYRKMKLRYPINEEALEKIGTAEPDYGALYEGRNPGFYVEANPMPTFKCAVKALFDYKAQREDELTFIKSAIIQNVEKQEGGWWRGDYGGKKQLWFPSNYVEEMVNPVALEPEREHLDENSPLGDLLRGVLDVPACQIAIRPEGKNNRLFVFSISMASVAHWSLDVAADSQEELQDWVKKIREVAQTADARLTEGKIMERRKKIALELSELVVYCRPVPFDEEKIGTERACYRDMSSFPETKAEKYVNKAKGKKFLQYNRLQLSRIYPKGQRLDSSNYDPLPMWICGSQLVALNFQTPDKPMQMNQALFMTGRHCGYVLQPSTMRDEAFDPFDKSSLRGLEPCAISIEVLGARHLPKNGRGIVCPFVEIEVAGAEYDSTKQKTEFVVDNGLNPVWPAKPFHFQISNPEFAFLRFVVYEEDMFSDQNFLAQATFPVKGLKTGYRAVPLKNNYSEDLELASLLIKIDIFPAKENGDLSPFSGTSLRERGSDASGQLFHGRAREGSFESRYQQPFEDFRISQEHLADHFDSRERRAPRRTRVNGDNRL
# Experimental: T-cells (5×10^7 cells per condition) were stimulated with Ig-CD95L or cl-CD95L (100 ng/mL) for indicated times at 37° C. Cells were lysed, incubated with APO1.3 (1 ug/mL) for 15 min at 4° C. and CD95 was immunoprecipitated using A/G protein-coupled magnetic beads (Ademtech, Pessac, France) for 1 h. After extensive washing, the immune complex was resolved by SDS-PAGE and immunoblotting was performed with indicated antibodies.
# Cells were lyzed for 30 minutes at 4° C. in lysis buffer (25 mM HEPES pH 7.4, 1% v/v Triton X-100, 150 mM NaCl, 2 mM EGTA supplemented with a mix of protease inhibitors (Sigma-Aldrich)). Protein concentration was determined by the bicinchoninic acid method (PIERCE, Rockford, Ill., USA) according to the manufacturer's protocol. Proteins were separated on a 12% SDS-PAGE and transferred to a nitrocellulose membrane (GE Healthcare, Buckinghamshire, England). The membrane was blocked 15 minutes with TBST (50 mM Tris, 160 mM NaCl, 0.05% v/v Tween 20, pH 7.8) containing 5% w/v dried skimmed milk (TBSTM). Primary antibody was incubated overnight at 4° C. in TBSTM. The membrane was intensively washed (TBST) and then the peroxydase-labeled anti-rabbit or anti-mouse (SouthernBiotech, Birmingham, Ala., US) was added for 45 minutes. The proteins were visualized with the enhanced chemiluminescence substrate kit (ECL, GE Healthcare).
# [1] = tested on: PLCγ1-dependent Ca^2+ response to TCR stimulation; assay: Ca^2+ response to TCR stimulation (selectivity); format: cell-based; conditions: TAT-CID pretreatment
# Experimental: T cells were loaded with Fura-PE3-AM (1 μM) at room temperature for 30 min in Hank's Balanced Salt Solution (HBSS). After washing, the cells were incubated for 15 min in the absence of Fura-PE3-AM to complete de-esterification of the dye. Cells were placed in the temperature controlled chamber (37° C.) of an inverted epifluorescence microscope (Olympus IX70) equipped with an ×40 UApo/340-1.15 W water-immersion objective (Olympus), and fluorescence micrograph images were captured at 510 nm and 12-bit resolution by a fast-scan camera (CoolSNAP fx Monochrome, Photometrics). To minimize UV light exposure, a 4×4 binning function was used. Fura-PE3 was alternately excited at 340 and 380 nm, and the ratios of the resulting images (emission filter at 520 nm) were produced at constant intervals (10 seconds). The Fura-PE3 ratio (Fratio 340/380) images were analyzed offline with Universal Imaging software, including Metafluor and Metamorph. Fratio reflects the intracellular Ca^2+ concentration changes. Each experiment was repeated 3 times, and the average of more than 20 single-cell traces was analyzed.
substance,measurement,setting,value
TAT-CID: cell penetrating peptide linking the 36-amino acid-stretch of CID (CD95 residues 175 to 210) to the HIV-TAT sequence; SEQ ID NO: 6 (RKKRRQRRRKRKEVQKTCRKHRKENQGSHESPTLNPETVAINLSD; TAT-CID),PLCγ1 recruitment to CD95,"CD95/PLCγ1; T cell lines Jurkat and CEM pre-incubated 1 h with 10 μM, cl-CD95L 100 ng/mL",impaired PLCγ1 recruitment
same,PLCγ1 binding to CD95,"CD95/PLCγ1; activated T lymphocytes from healthy subjects, pre-incubation",inhibited the PLCγ1 binding to CD95
same,PLCγ1-dependent Ca^2+ response to TCR stimulation,[1],did not alter this signal
